Results: the DeepSol protein solubility set

Experiment: soluble on expression in E. coli; label from the status in PepcDB or PDB records
For “MGSDKIHHHHHHMPYFERDGYYIDRCPECRFVYVRNVPSDGTLAAFYSGYYGDVNEFVPVSRKRLSKRFSKSVENWWHARNLVRCAAGRRKLLEIGYGEGHLLMALKQTRRFELRGIDYATGPMAYMSANGIDVAQGSLFDQHYPDNRFEFIVGFHVLEHVQHLGEFMSEVRRVLAPAGRVYFVVPCVTHFSAVRRRQNWKHFGPPGHLWYFSVTAMRRFMTDQDFKVVSAHCISNRTHLTVLAEKTS”, the “soluble on expression in E. coli” value was “not soluble”.
In the case of “MIDVIEAGLFTTVQDGGRFGYRHAGVPAGGAMDAWAYRLANALVGNNGDEAVLEATIAGPTLRFRVEAVVAVCGGDFPCTLNGRTFALWKPMAVEPGDVLEVGVCRTGFRAYIAVSGGIDVPPVMGSRSTYVPAQLGGLSGRPLQRGDALPVGVTHGRRVIGRMRWGLASAARRYIGGKTKTVRAVPGPEYDEFTPASRRQFFAARYEVTTQSDRIGYRLSGPTLALVREREMVSEAVVFGTVQVPASGQPIVLMADSQTTGGYPRIAQVAAVDLPILAQARPGDFIQFQPIGPEEAMWLYKEQQQRLARWITAIRRQWEGER”, the “soluble on expression in E. coli” value is reported as “not soluble”.
For “DIQMTQSPSSLSASVGDRVTITCRASGNIHNYLAWYQQKPGKAPKLLIYYTTTLADGVPSRFSGSGSGTDYTFTISSLQPEDIATYYCQHFWSTPRTFGQGTKVEIKR”, the “soluble on expression in E. coli” value was “soluble”.
For “MIKKVVNLIMTKERRTFSSEFKLQMVRLYKNGKLKNEIIRKYDLKPSIISNSIKQHQNTGPFNHQDNLKSDEKELIKLRKEVQHLKMEHDVLKQILKLILEHHHHHH”, the “soluble on expression in E. coli” value was “not soluble”.
In the case of “MERFLRLGGLGGNLGTFGANPQDSNQVDTSETVYISSLALLKMLKHGRAGVPMEVMGLMLGEFVDDYTVNVIDVFAMPQSGTGVSVEAVDPVFQAKMLDMLKQTGRPEMVVGWYHSHPGFGCWLSGVDINTQQSFEALSDRAVAVVVDPIQSVKGKVVIDAFRTINPQSMALNQEPRQTTSNLGHLQKPSIQALIHGLNRHYYSIPIAYRTHDLEQKMLLNLNKLSWMDAVSVENYSKCGEQNKEHLKAMLKLAKNYKKALEDEKNMTDQELAIKNVGKMDPKRHIADEVSKMLNDNIVQSLAGMMATTSLQ”, the “soluble on expression in E. coli” value is reported as “not soluble”.
With “MGSDKIHHHHHHMKTRESSVGLKFRKFNRFYTNVLGFLNEHIYDSPFSLTETRILFEIYNTPNCTAKALQDKLGLDRGYVSRIVKQFEKEDLIYKQRSKDDARHHYIFVTETGKTIYKKLEEKANEQVELMLKVINQKEQHKLAEAMAEIEAILSQSLSARASEISIRDYFLSEDLQLLIEKQRQFYAEAHGWDDTFLAYLQETFDADIEKIWIAESGGKFAGSVGLVKHDEKTVQLRWFLVDADFRGRGLGTQLLEHLVAYCQDMKFDRIFLWTVSTMAEARPLYKKFGFRISEVKQEAPLWGQQLTEERWDLELS” the “soluble on expression in E. coli” value was “not soluble”.
For “MGSDKIHHHHHHMASRLPPLNALRAFDASARQLSFTRAAEELFVTQAAISHQIKSLEDHLGIKLFMRKNRALLLTEEGQSYYLDIKDIFTSLHEATERLLARGAKGAITVSSQASFAIQWLVPRLTAFNSLHQDIDVRIKAVDQPENSLTEDVDIAIYYGRGRWPNIHADKLHTEYLIPVCSPLLVQENAANGKPPLLTLEDLSEHTLLHDTSRKDWKRWFKQVGVKGANVNHGPIFSHSAMVLQAALHGQGIALAYSVLAKPDIDSGRLVCPFNDVLVSKNAYFIVCRENQKDIGKITAFREWMLDMVEAEQAQITDGQIS”, the “soluble on expression in E. coli” value was “not soluble”.
With “MHIMVTQGGLMSLSIVHTRAALGVNAPPITVEVHISKGLPGLTMVGLPETTVKEARDRVRSAIINSGYEYPAKKITINLAPADLPKEGGRYDLPIAIALLAASEQLTANKLDEYELVGELALTGALRGVPGAISSATEAIKSGRKIIVAKDNEDEVGLINGEGCLIADHLQAVCAFLEGKHALERPKPTDAVSRALQHDLSDVIGQEQGKRGLEITAAGGHNLLLIGPPGTGKTMLASRINGLLPDLSNEEALESAAILSLVNAESVQKQWRQRPFRSPHHSASLTAMVGGGAIPGPGEISLAHNGVLFLDELPEFERRTLDALREPIESGQIHLSRTRAKITYPARFQLVAAMNPSPTGHYQGNHNRCTPEQTLRYLNRLSGPFLDRFDLSLEIPLPPPGILSKTVVPGESSATVKQRVMAARERQFKRQNKLNAWLDSPEIRQFCKLESEDAMWLEGTLIHLGLSIRAWQRLLKVARTIADIDQSDIITRQHLQEAVSYRAIDRLLIHLQKLLT” the “soluble on expression in E. coli” value was “not soluble”.
In the case of “GPGSMDDRSLKLAEDFVSARYIDAGRESLRSTARILRSILAQRCCPDEGLTDAAIELILRQLSLMDTNNFARHVGGGEREGRVVSALVRMRHFHLTHGVGRSGDLFSEQPKAAGSSLLYKITNVLMLDLIRQAGAPSTAAAVVVPMA”, the “soluble on expression in E. coli” value is reported as “not soluble”.
For “MSLATPDRLTIVNQYVDNVLTKAGDHYHGQSPTPLLADGVDPRTGKQMEWIFPDGRHAVLSNFSAQQNLMRVLVGLSNLSGNPSYKQRAEAIVKYHFQHYQDESGLLIWGGHRFVDLKTLQPEGPSEKEMVHELKNAYPYYDLMFSVDKDATARFIRGFWNAHVYDWKIMETSRHGKYGQKIGALWQSPFEQQPPFFATKGLSFLNAGNDLIYSASLLYKYNKEDGALVWAKRLAQQYVLPRDKATGLGVYQFTQALKRDETTDDADTHSKYGDRAQRQFGPEFGPTALEGNMMLKGRTSTIYSENALMQLQLGKDLGAEGKELLTWTTDGLKAFAKYAYNESDNTFRPMLANGKDLSNYVLPRDGYYGKKGTVIKPYPADNSFLLSYARAYTVLPDAELWRVARGIARAQGLGELGSAPGKDVKVDLATKNNDPYALFALLDLYQASKVKDYLSLAEKVGDNIISTRYQNGFFMAEPNRQYADVDTIEPYALLALEAAVRNQPQSVAPFLNGAGFTEGGYRMEDGSTRVSTRDNEIFLLNVGETLKPNNKKEGHHHHHH”, the “soluble on expression in E. coli” value was “soluble”.
With “MKTIFSGIQPSGVITIGNYIGALRQFVELQHEYNCYFCIVDQHAITVWQDPHELRQNIRRLAALYLAVGIDPTQATLFIQSEVPAHAQAAWMLQCIVYIGELERMTQFKEKSAGKEAVSAGLLTYPPLMAADILLYNTDIVPVGEDQKQHIELTRDLAERFNKRYGELFTIPEARIPKVGARIMSLVDPTKKMSKSDPNPKAYITLLDDAKTIEKKIKSAVTDSEGTIRYDKEAKPGISNLLNIYSTLSGQSIEELERQYEGKGYGVFKADLAQVVIETLRPIQERYHHWMESEELDRVLDEGAEKANRVASEMVRKMEQAMGLGRRR” the “soluble on expression in E. coli” value was “soluble”.
For “MDQLFYNGPPDYVEIEDRAITTEPGASIQAAPGAIWMEALPAIEGIPAGLEYLAYLDTVMVHQVKEVLEILTGWESKNKYAIRNKNGQQCYYAFEESNAWERQCCGSQRGFTMHIVDNFNKNVLIVKRELRCCADSFCGCLLGLQNICTIESLSTGLLGTVLQGYGCTNSFYNILDKDGNLIFLVDGQGCCTSCCCEDKDFTIKTPDSSVPIGSITKKWGGLLREAFTDADTFAVTFPIDLDVKLKAILLGATFLIDFVEFENNN”, the “soluble on expression in E. coli” value was “not soluble”.
For “MNEALSSGKVKNGEFLTVYLKEKLPDRLHYSQSYRIPPIIGMVGEGLIVRQNRTNAQECYGDHGYDNKFFSMRTIFVGHGSRFRRGKKVPSFENVQIYSVVADILGLRPAPNNGSSLFPRSILLPFRATRGLE”, the “soluble on expression in E. coli” value was “not soluble”.
For “MKFPGQRKSKHYFPVHARDPLVSQAQEAKKMSRTHIIGIDQTLVDIEAKVDDAFIEKYGLSKGHSLVIDNDKAEMLYNELKDNNMISNEFAGGTIGNTLHNYSVLADDKSTLLGVMSEDIHIGSYSYRYLCNTSSRMDLNYLQPVPGAIGRCFALISEDGERTFAISEGDMNQLRAESIPEKIFKNASALVLTAYLVRCKEGDPMPEATMKAIEYAKKYDVPVVLTMGTKFVVQDDPQYWRDFLNDHVTVVAMNEEEGEALTGATDPLEAANKTLEWVDLVLCTAGPVGLYMAGYTEDSAKRETSLPLLPGTIAEFNQFEFSRPAVKDSCENPIKVFSHISPYMGGPEKIKNTNGAGDGALSALLHDMAANHYHRNNVPNSSKHQHSFLTYSSFSQVCKYSNRVSFEVLAQHSPRLSRGLPEREDSLEEAYWER”, the “soluble on expression in E. coli” value was “not soluble”.
With “GTVKVYLPNKQRTVVTVRDGMSVYDSLDKALKVRGLNQDCCVVYRLIKGRKTVTAWDTAIAPLDGEELIVEVL” the “soluble on expression in E. coli” value was “soluble”.
With “MSLGELLFNRSFENTKPVSESNSWYTCYRGDVKEAKWWHSGYEEPKWYLLADGRKEEKLPLIFNNYWPSAHGKYFLQIDNRKKQIPTLLVQERIYIEKGKGYTVSGLFSSGGYLSEEKYSKESVPVTIAIYKEGDFHTPLSKTELAVNTNQFILYSSSLDATEYEGWCTYTIEVPAGGCVGIDLLSLMADDVIKGWKRESVERIKNELRPRTMRMPGGCFTSLYDWRSGIGPREERPVSYDTWWGCELLNDVGTFELVDLCEAVGAEPFFCVPVMFNNEYSAADWVDFCNNPTNAQRIAYGRTKPLNVKYWELENEPYRRFDAVTYANRCVDFAKAMKAKDPSIKIAVGNYWLFNKKFKEMLEIVGPYVDLITNRGGTPEEMRADIVILDAYNKAHGTDIKLCHTEFRAPVTRNEGNTDGLNQKDTGGEETLFNASIRWGFAMNMVEQYIAYQNMGGSFFTANYTNLSDGWGECLINTPKEGTYLNAPGVAFALLNSLDIAYPQIIEQEKENQDIVIQAAWNKRRDKLTLVVLNFSQNTQPCKIDFSQIKKSFRVRKGMKIAPQSDLSFNTLQHPEEVKVEEGHHHHHH” the “soluble on expression in E. coli” value was “soluble”.
For “MGSDKIHHHHHHMNFTKIAVSAGCILALCAGCGANDTSSTKEKASSEKSGVTKEITASVNKMETIISKLNDSVEKGDQKEIEKKGKELNSYWLSFENDIRSDYPFEYTEIEKHLQPIYTEAQKDKPDAGKIKTESESLKASLEDLTEAKKSGKKASDQLAKAADEYKGYVKEQSDQLVKATEAFTGAVKSGDIEKSKTLYAKARVYYERIEPIAESLGDLDPKIDARENDVEEGDKWTGFHKLEKAIWKDQDISGEKATADQLLKDVKELDGSIQSLKLTPEQIVAGAMELLNEAGISKITGEEERYSRIDLVDLMANVEGSEAVYQTVKSALVKDHSDLTEKLDTEFSEFEVLMAKYKTNDQSYTSYDKLSEKQIRELSTKLTTLSETMSKIANVL”, the “soluble on expression in E. coli” value was “not soluble”.
For “MLTTLSCCCNMPVVKVNCWNNMKVQIKSITQWGGVLLLSFSSCYVNANKLIKPNILFIAVDDLKPLIRDYGTAKVQTPNIDKLASQSTVFTRAYSQYPVCGPSRMSILTGLRPESNGIMNLKDKIRDVNPSVITLPQFFKNNGYETAATGKIFDPRNTTSRSEEEVLSWSIPYQRPKHGLKGKTRLAVESIDEPDEKFVDGGILKRGKKLLKQMANKNKPFFLAVGFKKPHLPFVAPKKYYDLYSRESFDLASYQSAPEDADTTYLFHKNQELRGYKPTPIKGGEIKPYPKGKLSSAHQKELLHGYFASVSFIDSLVGELLEELEKTGQAENTVIVFWGDHGFHLGDHGLWGKHTTMEQANHVPLIIKIPGSKANRYAKPVELLDVFPSLTEAAGLSIPNNLQGTSLVSLVTGKLKSIDKVAISQYKRKGAYGYSMRTEQYRYTQWVTPSGKVVYRDLYDLINDPLETKNIINTPEGKLLEVELNKQLHTNSAGLKRLKLEHHHHHH”, the “soluble on expression in E. coli” value was “not soluble”.
For “AHHHHHHGSKVYAPATIANFGPGFDVFGLAIETPRDTVIAKESDDFRIEVEGYKVPENDENVALVAAKALFKLVGEEGGIYLKLKKGIRPKSGLGSSGASSIAGAVAAARILGVEDDEIIIRAALEGERKASGSPHGDNVVPSYYGNFTIVESLNPLRVHNIEVDFKVVVILPSVEVPTSEARKVLPKKVPLKDAVKNIALASSLVLALKEGNLEEVGRLLEDHLALPYRLSLVPWFPKVKEAAKEAGAYGVMISGSGPAVFALGENLKEIGKAMKEAFESFGIEAEYWVTKVGRGAKWC”, the “soluble on expression in E. coli” value was “not soluble”.
For “MTTATSERQKTLLFKAAERQWKEEFAGKETDIRKVDCNIYKGILYQLEIRQVFLDTSLSLKKLSALLETNQTYLSNVVNKYFGCNLKELVNTYRVEYAKELLCSRRCALTELPCSCGFASKSAFYSAFSRIVGVSPLSYQTQERRLEHHHHHH”, the “soluble on expression in E. coli” value was “soluble”.
